6 molecules from paper PMC8067709, “Crystal Structure of the Epo1-Bem3 Complex for Bud Growth” (International Journal of Molecular Sciences, 2021) can be followed below.

In data set [1] the target is Scs2-Msp (1-128), N-His (Saccharomyces cerevisiae) (UniProt P40075). The data set is described as follows: MST; Monolith NT.115; RED-tris-NTA labeled N-His Scs2-Msp (100 nM) with a serial dilution of Epo1, Bem3 or EB complex from 2 mM; 20 mM Tris-HCl pH 8.0, 150 mM NaCl, 4 mM MgCl2, 0.05% Tween 20.
In data set [2] the target is T1, Bem3^CC1 (1-99) with 6xHis tag, isolated protein (Saccharomyces cerevisiae, UniProt P32873 1-99).
T1 chain: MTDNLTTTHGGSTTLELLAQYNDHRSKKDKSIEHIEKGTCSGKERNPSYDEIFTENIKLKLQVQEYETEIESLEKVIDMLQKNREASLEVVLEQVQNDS
The data set is described as follows: SPR. In general terms: SPR reads the build-up and loss of mass on a sensor chip optically.

Data set [3] has as its target Epo1^CC2-CC4 (746-943) with 6xHis tag, isolated protein (Saccharomyces cerevisiae). The data set can be described thus: SEC-MALS; Superdex 200 10/300 with DAWN HELEOS II; 100 uL of 2-4 mg/mL protein; 20 mM Tris pH 8.0, 150 mM NaCl, 4 mM MgCl2. (In general: Size exclusion chromatography separates by hydrodynamic size, large species first.)
In data set [4] the target is T2, Epo1^CC2-CC4 (746-943) with 6xHis tag, isolated protein.
T2 chain: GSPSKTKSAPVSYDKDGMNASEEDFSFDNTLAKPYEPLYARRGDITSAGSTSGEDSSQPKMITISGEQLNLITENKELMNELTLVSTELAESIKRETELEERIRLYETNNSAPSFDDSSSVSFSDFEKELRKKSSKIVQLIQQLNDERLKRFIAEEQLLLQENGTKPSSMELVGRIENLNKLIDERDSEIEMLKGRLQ
The data set is described as follows: SPR. As to conditions: chain shown with the change;; parent: 72.65.

Data set [5] concerns the molecule itself. The data set can be described thus: SEC-MALS; Superdex 200 10/300 with DAWN HELEOS II; 100 uL of 2-4 mg/mL protein; 20 mM Tris pH 8.0, 150 mM NaCl, 4 mM MgCl2.

Scs2-Msp (1-128), N-His (Saccharomyces cerevisiae), sequence (P40075 1-128): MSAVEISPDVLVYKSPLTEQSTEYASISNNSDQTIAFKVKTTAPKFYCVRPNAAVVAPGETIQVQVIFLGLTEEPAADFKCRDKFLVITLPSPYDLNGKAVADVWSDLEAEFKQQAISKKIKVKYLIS

For “Epo1^CC2-CC4-Bem3^CC1 complex (from UniProt P32873 1-99)”, the Kd (usually the concentration at which binding is half-saturated) in data set [1] stood at 120 µM.

B1: Epo1^CC2-CC4 (746-943) with 6xHis tag, isolated protein (domain or fragment)
chain: GSPSKTKSAPVSYDKDGMNASEEDFSFDNTLAKPYEPLYARRGDITSAGSTSGEDSSQPKMITISGEQLNLITENKELMNELTLVSTELAESIKRETELEERIRLYETNNSAPSFDDSSSVSFSDFEKELRKKSSKIVQLIQQLNDERLKRFIAEEQLLLQENGTKPSSMELVGRIENLNKLIDERDSEIEMLKGRLQ
Regarding B1, the Kd in data set [2] stood at 72.7 µM; in data set [1], 170 µM. Also, in data set [3], the stoichiometry N – broadly, a count of units in the complex or per binding partner – came out at 2.

B2: Epo1-CC-K881A (domain or fragment)
chain: GSPSKTKSAPVSYDKDGMNASEEDFSFDNTLAKPYEPLYARRGDITSAGSTSGEDSSQPKMITISGEQLNLITENKELMNELTLVSTELAESIKRETELEERIRLYETNNSAPSFDDSSSVSFSDFEKELRKKSSAIVQLIQQLNDERLKRFIAEEQLLLQENGTKPSSMELVGRIENLNKLIDERDSEIEMLKGRLQ
As to B2, the equilibrium dissociation constant (Kd) in data set [2] was determined as 375 µM.

B3: Epo1CC2-CC4-Q888A (protein)
chain: GSPSKTKSAPVSYDKDGMNASEEDFSFDNTLAKPYEPLYARRGDITSAGSTSGEDSSQPKMITISGEQLNLITENKELMNELTLVSTELAESIKRETELEERIRLYETNNSAPSFDDSSSVSFSDFEKELRKKSSKIVQLIQALNDERLKRFIAEEQLLLQENGTKPSSMELVGRIENLNKLIDERDSEIEMLKGRLQ
modifications: Entity 1 of 6LP3 is Epo1 (YMR124W) 746-943, so entity position = residue number - 745 (Q888 = 143, K881 = 136, R876 = 131). Q888A is taken from the figure label; the text says Q884A and the legend Q88A. Epo1 CC2-CC4 alone is a homodimer in solution; one chain is given.
With B3, in data set [2], the dissociation constant (Kd) amounted to 115 µM.

B4: Bem3^CC1 (1-99) with 6xHis tag, isolated protein, P32873 R84A (protein)
chain: MTDNLTTTHGGSTTLELLAQYNDHRSKKDKSIEHIEKGTCSGKERNPSYDEIFTENIKLKLQVQEYETEIESLEKVIDMLQKNAEASLEVVLEQVQNDS
As to B4, in data set [4], the Kd amounted to 137 µM.

B5: Bem3^CC1 (1-99) with 6xHis tag, isolated protein (domain or fragment, Saccharomyces cerevisiae, UniProt P32873 1-99, looked up)
chain: MTDNLTTTHGGSTTLELLAQYNDHRSKKDKSIEHIEKGTCSGKERNPSYDEIFTENIKLKLQVQEYETEIESLEKVIDMLQKNREASLEVVLEQVQNDS
notes: Bem3, Saccharomyces cerevisiae, residues 1-99 (CC1 domain); Dimer in solution by MALS; theoretical molecular mass printed as 11.39 kDa; also called N-His-unlabeled Bem3^CC1; wild-type (wt) Bem3^CC1; source: pET-22b construct, purified (Hitrap Q ion-exchange); not shown: 6xHis, N-terminal, kept
On to B5, for which the “stoichiometry N” value in data set [5] was 2.
